Read-outs that look alike come from different tables or passages of the source.
How the values were obtained:
human CD20 [1] = biological target: T1, human CD20 (human, UniProt P11836 1-297); assay: flow cytometry on Daudi cells (CD20-positive, CD3-negative); PE-conjugated goat anti-human IgG F(ab')2; median FI (PE)
T1 construct: whole, on cells; On Daudi and other human B cell lines, on human B cells in blood, or transiently expressed in HEK293F cells (construct pEE12.4CD20HS-GA); also called wild type CD20; WT CD20
T1 sequence (looked up): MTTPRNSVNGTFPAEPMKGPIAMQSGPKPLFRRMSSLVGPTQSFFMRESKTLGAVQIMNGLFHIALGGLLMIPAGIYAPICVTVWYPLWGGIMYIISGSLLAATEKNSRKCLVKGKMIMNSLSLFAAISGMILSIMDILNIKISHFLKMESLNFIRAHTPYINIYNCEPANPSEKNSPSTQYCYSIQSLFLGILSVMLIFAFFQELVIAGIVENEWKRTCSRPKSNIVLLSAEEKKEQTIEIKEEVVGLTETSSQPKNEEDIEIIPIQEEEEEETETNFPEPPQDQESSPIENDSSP
Procedure: (§1) In addition to the non-activating mutations, L234F, L235E, D265A, on both arms, the bispecific antibody contained an F405L mutation on one arm and a K409R mutation on the other arm.
(§2) Cells (1×10⁵ cells/well) were incubated in polystyrene 96-well round-bottom plates (Greiner bio-one, cat. no. 650101) with serial dilutions of antibodies (range 0.041 to 30 μg/mL in 3-fold dilution steps [A-E] and 0.00061 to 10 μg/mL in 4-fold dilution steps [F-I]) in 100 μL PBS/0.1% BSA/0.02% azide (from here designated as staining buffer) at 4° C. for 30 min.
(§3) After washing twice in staining buffer, cells were incubated in 50 μL secondary antibody at 4° C. for 30 min. As a secondary antibody, R-Phycoerythrin (PE)-conjugated goat-anti-human IgG F(ab′)₂ (cat. no. 109-116-098, Jackson ImmunoResearch Laboratories, Inc., West Grove, Pa.) diluted 1:200 in staining buffer, was used for all experiments. Next, cells were washed twice in staining buffer, re-suspended in 30 μL staining buffer and analyzed on an iQue screener (Intellicyt Corporation, USA) (for FIG. 1A-E) or re-suspended in 100 μL staining buffer and analyzed on a FACSCANTOII (BD Biosciences) (FIG. 1F-I). Binding curves were analyzed using non-linear regression (sigmoidal dose-response with variable slope) using GraphPad Prism V75.04 software (GraphPad Software, San Diego, Calif., USA).

human CD20 [2] = biological target: T1, human CD20; assay: as above; remark: listed apart in the source
Procedure: as §1, §2, §3

EC50 (read off the curve) (human CD20 [1]): ~0.3 µg/mL
EC50 (read off the curve) (human CD20 [2]): ~0.3 µg/mL
B1: IgG1-7D8-FEAR (antibody, V domains shown)
VH: EVQLVESGGGLVQPDRSLRLSCAASGFTFHDYAMHWVRQAPGKGLEWVSTISWNSGTIGYADSVKGRFTISRDNAKNSLYLQMNSLRAEDTALYYCAKDIQYGNYYYGMDVWGQGTTVTVSS
VL: EIVLTQSPATLSLSPGERATLSCRASQSVSSYLAWYQQKPGQAPRLLIYDASNRATGIPARFSGSGSGTDFTLTISSLEPEDFAVYYCQQRSNWPITFGQGTRLEIK
